Data on two molecules can be found in patent US20210221911A1 (NATIONAL CANCER CENTER JAPAN, published 2021).

Experiment [1] addresses T1, recombinant human tissue factor (rhTF), residues 33 to 251 of hTF with C-terminal His6 tag (human, UniProt P13726 33-251).
T1 construct: range 33-251; also called rhTF antigen
The experiment in a line: SPR, ratio of koff values, reference 1849ADC. The protocol:
(§1) SPR measurement was performed by using BiaCore T200 (GE Healthcare). The recombinant human tissue factor antigen (rhTF antigen) was subjected to buffer exchange to 10 mM sodium acetate solution (pH 5.0) and the final protein concentration was adjusted to 2 to 10 μg/mL. Subsequently, contact time was set to 30 seconds and the antigen was immobilized on a CM5 sensor chip (GE Healthcare) according to a basic protocol by using amine coupling. Then, 5 dilution series of the antibody solution were prepared by diluting each ADC solution in DPBS so that the final concentrations thereof became 320 nM, 160 nM, 80 nM, 40 nM, and 20 nM.
(In general: Surface plasmon resonance follows binding to a sensor surface in real time, without labels.)

For experiment [2], the target named is T1, recombinant human tissue factor (rhTF), …. Put plainly: SPR, Biacore T200, rhTF on CM5 chip, single-cycle kinetics, bivalent analyte model. The protocol:
as §1

Experiment [3] addresses recombinant human tissue factor (rhTF, SEQ ID NO: 13) (human, UniProt P13726 33-251). The experiment in a line: ELISA screen of hybridomas on solid-phase rhTF. The source says:
(§2) Recombinant human tissue factor micellized using FCA adjuvant (rhTF, SEQ ID NO: 13) was intraperitoneally administered to Wister rats. After several immunizations, rat antisera were examined by ELISA using a solid phase having rhTFs thereon. A spleen was excised from a rat individual that had shown an increased antibody titer and splenocytes were obtained therefrom. The splenocytes and p3X63 mouse myeloma cells were fused by a PEG technique and cultivated in a HAT culture medium to select hybridoma cells. The hybridoma cells were screened to select those that reacted positively to rhTFs in ELISA and also reacted positively to cells expressing human tissue factor strongly such as an MCF7 cell in flow cytometry analysis. The selected hybridoma cells were cloned by limiting dilution to establish hybridoma cell clones that produced anti-tissue factor antibodies.

The target of experiment [4] is T2, human tissue factor on cells expressing it strongly such as MCF7 cells (human, UniProt P13726 33-295).
T2 construct: whole, on cells; also called TF
Put plainly: flow cytometry screen of hybridomas on cells expressing TF.
From the text: as §2

B1: 1084ADC (ADC composed of the monoclonal antibody produced by clone No. 1084 and monomethyl auristatin E) (antibody, V domains shown)
VH: QVQLKESGPGLVQPSQTLSLTCIVSGFSLTNYNVHWVRQPAGAGLEWMGVIWTDGKTDYNSTLQSRLSISRDTSKSQVFLKMNSLQAEDIATYYCARDWDTGFDYWGQGVMVTVSS
VL: DIKMTQSPSSLSASLGERVTISCRASENINNILAWYQKKEDGSVKLLIHYTSNLQSGVPSRFSGSGSGKDYSLTISGLESEDIATYYCQQAYTPYAFGAGTKLELK
modifications: MMAE joined through a maleimide-PEG12-Val-Cit-PABA linker to sulfhydryl groups of the reduced antibody; sites and number not stated
notes: Whole rat monoclonal antibody from a rat-mouse hybridoma, conjugated to MMAE
By koff is commonly meant the first-order rate constant of dissociation. The term kon denotes a measure of how fast the partners come together. As to B1, in experiment [1], the “koff relative to 1849ADC” value turned out to be 39.3 times. For the same molecule, in experiment [2], the Kd worked out at 35 nM, the koff was 0.000825 s⁻¹ and the kon worked out at 26100 M⁻¹ s⁻¹.

B2: monoclonal antibody produced by clone No. 1084 (antibody, V domains shown)
VH: B1 VH
VL: B1 VL
Regarding B2, the binding result in experiment [3] and in experiment [4] was “binds” each time.
